Measured values taken from patent US20180155451A1 (published 2018).

B1: GpH7-A5/GpH7-B3 variant Q295_08L/GpL16-k0 (antibody, human IgG1, kappa)
heavy 1: not shown
heavy 2: not shown
light: DIVMTQSPLSLPVTPGEPASISCQASESLVHSNRNTYLHWYLQKPGQSPQLLIYKVSNRFSGVPDRFSGSGSGTDFTLKISRVEAEDVGVYYCSQNTHVPPTFGQGTKVEIERTVAAPSVFIFPPSDEQLKSGTASVVCLLNNFYPREAKVQWKVDNALQSGNSQESVTEQDSKDSTYSLSSTLTLSKADYEKHKVYACEVTHQGLSSPVTKSFNRGEC
notes: mutation in one H chain only; also called He Ab Q295_08L; Q295L
B2: GpH7-A5/GpH7-B3 variant Q295_09D/GpL16-k0 (antibody, human IgG1, kappa)
heavy 1: not shown
heavy 2: not shown
light: B1 light
notes: mutation in one H chain only; also called He Ab Q295_09D; Q295D
B3: GpH7-A5/GpH7-B3 variant Q295_11K/GpL16-k0 (antibody, human IgG1, kappa)
heavy 1: not shown
heavy 2: not shown
light: B1 light
notes: mutation in one H chain only; also called He Ab Q295_11K; Q295K
B4: GpH7-A5/GpH7-B3 variant Q295_13S/GpL16-k0 (antibody, human IgG1, kappa)
heavy 1: not shown
heavy 2: not shown
light: B1 light
notes: mutation in one H chain only; also called He Ab Q295_13S; Q295S
B5: GpH7-A5/GpH7-B3 variant Q295_14T/GpL16-k0 (antibody, human IgG1, kappa)
heavy 1: not shown
heavy 2: not shown
light: B1 light
notes: mutation in one H chain only; also called He Ab Q295_14T; Q295T
B6: GpH7-A5/GpH7-B3 variant Q295_15Y/GpL16-k0 (antibody, human IgG1, kappa)
heavy 1: not shown
heavy 2: not shown
light: B1 light
notes: mutation in one H chain only; also called He Ab Q295_15Y; Q295Y
B7: GpH7-A5/GpH7-B3 variant Q295_16H/GpL16-k0 (antibody, human IgG1, kappa)
heavy 1: not shown
heavy 2: not shown
light: B1 light
notes: mutation in one H chain only; also called He Ab Q295_16H; Q295H
B8: GpH7-B3 variant P271_14T/GpL16-k0 (antibody, human IgG1, kappa)
heavy: not shown
light: B1 light
notes: mutation in both H chains; also called Ho Ab P271_14T; P271T
B9: GpH7-B3 variant P271_15Y/GpL16-k0 (antibody, human IgG1, kappa)
heavy: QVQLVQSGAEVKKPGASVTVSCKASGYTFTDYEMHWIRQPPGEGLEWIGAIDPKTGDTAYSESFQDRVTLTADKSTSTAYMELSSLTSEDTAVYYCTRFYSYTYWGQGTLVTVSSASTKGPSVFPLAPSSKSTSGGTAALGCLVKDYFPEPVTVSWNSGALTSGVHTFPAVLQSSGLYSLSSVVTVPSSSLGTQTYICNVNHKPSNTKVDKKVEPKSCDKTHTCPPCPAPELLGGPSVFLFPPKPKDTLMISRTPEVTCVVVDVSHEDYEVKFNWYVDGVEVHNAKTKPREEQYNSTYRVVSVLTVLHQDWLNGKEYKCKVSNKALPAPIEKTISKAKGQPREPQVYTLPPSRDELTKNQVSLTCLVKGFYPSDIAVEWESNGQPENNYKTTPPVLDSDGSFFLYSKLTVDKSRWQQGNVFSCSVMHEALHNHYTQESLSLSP
light: B1 light
notes: mutation in both H chains; also called Ho Ab P271_15Y; P271Y
B10: GpH7-B3 variant P271_16H/GpL16-k0 (antibody, human IgG1, kappa)
heavy: not shown
light: B1 light
notes: mutation in both H chains; also called Ho Ab P271_16H; P271H
B11: GpH7-B3 variant P329_01G/GpL16-k0 (antibody, human IgG1, kappa)
heavy: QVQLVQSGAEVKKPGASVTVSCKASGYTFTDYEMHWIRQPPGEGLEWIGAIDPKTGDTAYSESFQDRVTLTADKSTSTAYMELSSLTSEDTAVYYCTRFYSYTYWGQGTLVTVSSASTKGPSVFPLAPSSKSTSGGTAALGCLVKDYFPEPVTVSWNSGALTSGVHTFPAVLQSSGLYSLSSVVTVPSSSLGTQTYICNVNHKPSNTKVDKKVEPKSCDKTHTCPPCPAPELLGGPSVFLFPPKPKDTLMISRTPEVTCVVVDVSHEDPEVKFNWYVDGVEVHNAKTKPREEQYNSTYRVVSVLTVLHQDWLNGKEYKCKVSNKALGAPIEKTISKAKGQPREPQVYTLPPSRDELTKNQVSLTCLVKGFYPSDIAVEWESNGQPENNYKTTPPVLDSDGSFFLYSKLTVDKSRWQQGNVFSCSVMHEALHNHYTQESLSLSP
light: B1 light
notes: mutation in both H chains; also called Ho Ab P329_01G; P329G
B12: GpH7-B3 variant P329_02A/GpL16-k0 (antibody, human IgG1, kappa)
heavy: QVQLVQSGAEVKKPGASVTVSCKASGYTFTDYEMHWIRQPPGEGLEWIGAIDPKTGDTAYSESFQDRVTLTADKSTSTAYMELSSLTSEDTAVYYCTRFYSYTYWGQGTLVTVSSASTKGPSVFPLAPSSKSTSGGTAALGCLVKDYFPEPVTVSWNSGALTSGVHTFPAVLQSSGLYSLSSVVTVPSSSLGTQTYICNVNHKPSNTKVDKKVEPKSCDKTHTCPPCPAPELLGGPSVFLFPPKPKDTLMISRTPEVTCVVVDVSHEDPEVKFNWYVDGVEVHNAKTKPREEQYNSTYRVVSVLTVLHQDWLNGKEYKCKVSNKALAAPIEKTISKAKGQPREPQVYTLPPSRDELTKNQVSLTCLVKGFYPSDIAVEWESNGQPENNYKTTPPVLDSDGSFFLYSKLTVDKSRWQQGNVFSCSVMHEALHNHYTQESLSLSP
light: B1 light
notes: mutation in both H chains; also called Ho Ab P329_02A; P329A
B13: GpH7-B3 variant Q295_03V/GpL16-k0 (antibody, human IgG1, kappa)
heavy: not shown
light: B1 light
notes: mutation in both H chains; also called Ho Ab Q295_03V; Q295V
B14: GpH7-B3 variant Q295_04F/GpL16-k0 (antibody, human IgG1, kappa)
heavy: not shown
light: B1 light
notes: mutation in both H chains; also called Ho Ab Q295_04F; Q295F
B15: GpH7-B3 variant Q295_05P/GpL16-k0 (antibody, human IgG1, kappa)
heavy: not shown
light: B1 light
notes: mutation in both H chains; also called Ho Ab Q295_05P; Q295P
B16: GpH7-B3 variant Q295_07I/GpL16-k0 (antibody, human IgG1, kappa)
heavy: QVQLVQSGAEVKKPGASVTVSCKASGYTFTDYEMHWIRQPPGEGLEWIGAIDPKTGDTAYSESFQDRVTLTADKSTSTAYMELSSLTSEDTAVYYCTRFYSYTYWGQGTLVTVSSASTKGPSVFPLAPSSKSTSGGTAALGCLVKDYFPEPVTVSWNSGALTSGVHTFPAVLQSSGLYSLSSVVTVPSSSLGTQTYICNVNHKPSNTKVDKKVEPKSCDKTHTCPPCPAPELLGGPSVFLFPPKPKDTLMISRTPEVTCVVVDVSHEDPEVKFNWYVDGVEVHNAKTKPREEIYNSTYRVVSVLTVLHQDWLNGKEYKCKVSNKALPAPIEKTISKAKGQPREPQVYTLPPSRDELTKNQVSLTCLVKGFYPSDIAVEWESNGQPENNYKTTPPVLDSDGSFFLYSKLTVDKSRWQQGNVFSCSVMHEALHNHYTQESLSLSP
light: B1 light
notes: mutation in both H chains; also called Ho Ab Q295_07I; Q295I
B17: GpH7-B3 variant Q295_08L/GpL16-k0 (antibody, human IgG1, kappa)
heavy: not shown
light: B1 light
notes: mutation in both H chains; also called Ho Ab Q295_08L; Q295L
B18: GpH7-B3 variant Q295_09D/GpL16-k0 (antibody, human IgG1, kappa)
heavy: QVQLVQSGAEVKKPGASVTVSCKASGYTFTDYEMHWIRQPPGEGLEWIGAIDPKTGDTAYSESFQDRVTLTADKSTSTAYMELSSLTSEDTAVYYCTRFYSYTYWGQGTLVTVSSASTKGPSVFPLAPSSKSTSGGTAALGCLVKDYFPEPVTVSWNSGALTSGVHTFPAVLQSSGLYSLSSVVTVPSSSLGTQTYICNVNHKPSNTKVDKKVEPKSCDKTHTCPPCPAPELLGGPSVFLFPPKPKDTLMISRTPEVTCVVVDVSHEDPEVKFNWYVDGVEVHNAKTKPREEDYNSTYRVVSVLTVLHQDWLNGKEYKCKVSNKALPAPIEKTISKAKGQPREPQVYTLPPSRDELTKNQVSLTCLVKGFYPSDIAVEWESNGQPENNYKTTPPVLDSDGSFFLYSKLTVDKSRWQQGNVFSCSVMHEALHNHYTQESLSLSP
light: B1 light
notes: mutation in both H chains; also called Ho Ab Q295_09D; Q295D
B19: GpH7-B3 variant Q295_11K/GpL16-k0 (antibody, human IgG1, kappa)
heavy: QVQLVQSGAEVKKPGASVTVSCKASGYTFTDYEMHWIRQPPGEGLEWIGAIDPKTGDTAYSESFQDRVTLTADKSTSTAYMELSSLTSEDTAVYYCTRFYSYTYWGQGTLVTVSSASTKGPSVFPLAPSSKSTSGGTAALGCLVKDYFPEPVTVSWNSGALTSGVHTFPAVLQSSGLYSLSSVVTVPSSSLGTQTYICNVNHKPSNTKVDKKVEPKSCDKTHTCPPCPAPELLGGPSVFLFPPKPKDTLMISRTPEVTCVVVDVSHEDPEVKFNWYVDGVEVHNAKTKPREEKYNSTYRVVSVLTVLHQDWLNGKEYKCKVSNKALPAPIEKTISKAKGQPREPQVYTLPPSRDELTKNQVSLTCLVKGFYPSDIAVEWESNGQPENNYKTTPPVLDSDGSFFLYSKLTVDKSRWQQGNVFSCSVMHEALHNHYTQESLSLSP
light: B1 light
notes: mutation in both H chains; also called Ho Ab Q295_11K; Q295K
B20: GpH7-B3 variant Q295_13S/GpL16-k0 (antibody, human IgG1, kappa)
heavy: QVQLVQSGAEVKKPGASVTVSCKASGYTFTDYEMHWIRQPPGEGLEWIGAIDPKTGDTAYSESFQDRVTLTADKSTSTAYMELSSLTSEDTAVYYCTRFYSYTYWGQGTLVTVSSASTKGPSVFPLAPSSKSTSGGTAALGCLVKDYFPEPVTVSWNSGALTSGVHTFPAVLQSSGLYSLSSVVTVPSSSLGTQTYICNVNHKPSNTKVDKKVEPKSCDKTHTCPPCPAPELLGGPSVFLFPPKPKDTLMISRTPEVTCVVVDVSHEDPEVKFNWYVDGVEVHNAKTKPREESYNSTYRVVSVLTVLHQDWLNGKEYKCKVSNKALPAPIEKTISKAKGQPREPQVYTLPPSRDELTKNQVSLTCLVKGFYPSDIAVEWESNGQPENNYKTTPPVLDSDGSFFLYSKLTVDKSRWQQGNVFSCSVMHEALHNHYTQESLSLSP
light: B1 light
notes: mutation in both H chains; also called Ho Ab Q295_13S; Q295S
B21: GpH7-B3 variant Q295_14T/GpL16-k0 (antibody, human IgG1, kappa)
heavy: not shown
light: B1 light
notes: mutation in both H chains; also called Ho Ab Q295_14T; Q295T
B22: GpH7-B3 variant Q295_15Y/GpL16-k0 (antibody, human IgG1, kappa)
heavy: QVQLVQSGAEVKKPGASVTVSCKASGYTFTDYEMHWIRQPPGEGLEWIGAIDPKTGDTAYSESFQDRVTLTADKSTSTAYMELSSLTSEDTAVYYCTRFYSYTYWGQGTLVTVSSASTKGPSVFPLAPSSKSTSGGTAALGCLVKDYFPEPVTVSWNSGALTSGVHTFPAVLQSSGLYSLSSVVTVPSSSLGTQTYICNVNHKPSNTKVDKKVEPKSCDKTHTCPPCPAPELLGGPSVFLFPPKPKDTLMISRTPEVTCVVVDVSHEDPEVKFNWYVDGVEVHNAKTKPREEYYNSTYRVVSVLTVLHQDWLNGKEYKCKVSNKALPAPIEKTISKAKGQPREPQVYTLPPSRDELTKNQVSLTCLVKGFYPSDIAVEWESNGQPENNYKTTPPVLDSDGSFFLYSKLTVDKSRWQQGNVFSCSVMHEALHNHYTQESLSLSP
light: B1 light
notes: mutation in both H chains; also called Ho Ab Q295_15Y; Q295Y
B23: GpH7-B3 variant Q295_16H/GpL16-k0 (antibody, human IgG1, kappa)
heavy: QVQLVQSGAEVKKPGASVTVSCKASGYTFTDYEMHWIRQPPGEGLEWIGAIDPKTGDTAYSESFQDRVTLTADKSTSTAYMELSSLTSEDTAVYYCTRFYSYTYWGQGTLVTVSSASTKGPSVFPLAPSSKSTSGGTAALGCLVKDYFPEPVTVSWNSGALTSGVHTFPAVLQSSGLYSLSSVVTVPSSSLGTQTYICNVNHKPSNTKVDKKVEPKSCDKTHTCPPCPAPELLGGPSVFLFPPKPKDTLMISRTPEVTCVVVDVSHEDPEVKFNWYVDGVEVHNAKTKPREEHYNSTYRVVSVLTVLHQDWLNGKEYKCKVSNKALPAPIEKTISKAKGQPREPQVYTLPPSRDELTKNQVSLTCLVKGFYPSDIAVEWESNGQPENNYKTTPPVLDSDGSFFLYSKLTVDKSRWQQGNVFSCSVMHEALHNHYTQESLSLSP
light: B1 light
notes: mutation in both H chains; also called Ho Ab Q295_16H; Q295H
B24: GpH7-B3 variant Q295_18N/GpL16-k0 (antibody, human IgG1, kappa)
heavy: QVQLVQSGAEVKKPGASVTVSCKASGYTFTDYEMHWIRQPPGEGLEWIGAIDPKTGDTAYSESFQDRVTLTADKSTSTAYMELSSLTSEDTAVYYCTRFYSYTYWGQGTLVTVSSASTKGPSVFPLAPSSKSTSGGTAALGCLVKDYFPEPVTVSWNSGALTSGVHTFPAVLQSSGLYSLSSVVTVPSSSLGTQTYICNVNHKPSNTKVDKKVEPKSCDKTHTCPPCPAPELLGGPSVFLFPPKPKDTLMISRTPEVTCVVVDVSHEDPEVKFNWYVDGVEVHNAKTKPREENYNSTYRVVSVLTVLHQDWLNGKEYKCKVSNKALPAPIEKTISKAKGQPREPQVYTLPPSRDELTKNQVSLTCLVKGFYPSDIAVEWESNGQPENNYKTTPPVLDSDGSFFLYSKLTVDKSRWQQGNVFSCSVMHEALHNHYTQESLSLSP
light: B1 light
notes: mutation in both H chains; also called Ho Ab Q295_18N; Q295N
B25: GpH7-B3 variant S239_01G/GpL16-k0 (antibody, human IgG1, kappa)
heavy: not shown
light: B1 light
notes: mutation in both H chains; also called Ho Ab S239_01G; S239G

Target: T1, FcγRIa extracellular domain with C-terminal His tag (human, UniProt P12314 16-292)
T1 construct: extracellular domain; also called FcgRI; CD64; not shown: His tag at the C terminus
T1 sequence (P12314 16-292): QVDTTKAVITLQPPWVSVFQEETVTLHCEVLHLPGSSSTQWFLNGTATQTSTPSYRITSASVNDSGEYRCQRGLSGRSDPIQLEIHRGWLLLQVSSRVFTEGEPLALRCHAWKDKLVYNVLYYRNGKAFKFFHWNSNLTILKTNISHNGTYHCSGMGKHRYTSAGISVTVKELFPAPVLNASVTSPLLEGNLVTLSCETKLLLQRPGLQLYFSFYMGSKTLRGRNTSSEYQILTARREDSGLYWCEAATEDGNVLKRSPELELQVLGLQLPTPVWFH
Experiment: SPR Biacore, relative FcγRIa binding vs GpH7-A5/GpH7-B3/GpL16-k0

First: B1
Second: B2
The He/Con_1a of the first is higher: 105 % of HeCon Ab (=100) for the first, 100 % of HeCon Ab (=100) for the second.

Going from B3 to B4, the He/Con_1a rises from 101 % of HeCon Ab (=100) to 102 % of HeCon Ab (=100).

Compared with B5, B6 is lower in He/Con_1a: 103 % of HeCon Ab (=100) for the first, 102 % of HeCon Ab (=100) for the second.

B7 was tested, and the He/Con_1a was 102 % of HeCon Ab (=100).

Target: T1, FcγRIa extracellular domain with …
Experiment: SPR Biacore, relative FcγRIa binding vs GpH7-B3/GpL16-k0

Going from B8 to B9, the Ho/Con_1a falls from 99.5 % of HoCon Ab (=100) to 99.4 % of HoCon Ab (=100).

First: B10
Second: B11
The Ho/Con_1a of the first is higher: 99.4 % of HoCon Ab (=100) for the first, 89.5 % of HoCon Ab (=100) for the second.

First: B12
Second: B13
The Ho/Con_1a of the first is lower: 98.2 % of HoCon Ab (=100) for the first, 102 % of HoCon Ab (=100) for the second.

Going from B14 to B15, the Ho/Con_1a rises from 100 % of HoCon Ab (=100) to 101 % of HoCon Ab (=100).

Compared with B16, B17 is higher in Ho/Con_1a: 101 % of HoCon Ab (=100) for the first, 103 % of HoCon Ab (=100) for the second.

Compared with B18, B19 is higher in Ho/Con_1a: 96.8 % of HoCon Ab (=100) for the first, 99.9 % of HoCon Ab (=100) for the second.

Compared with B20, B21 is higher in Ho/Con_1a: 101 % of HoCon Ab (=100) for the first, 102 % of HoCon Ab (=100) for the second.

First: B22
Second: B23
The Ho/Con_1a of the first is lower: 97 % of HoCon Ab (=100) for the first, 99.1 % of HoCon Ab (=100) for the second.

B24 and B25 are the same in Ho/Con_1a: 101 % of HoCon Ab (=100) for the first, 101 % of HoCon Ab (=100) for the second.
